Assay results taken from publication PMC4981888.

Target: GST-SVV (UniProt O15392)
Test: native gel or EMSA; 0.5 μg recombinant protein in native sample buffer (no SDS, no β-mercaptoethanol) on a 15% or 6% native polyacrylamide gel; Western blot with anti-SVV or anti-cortactin; monomer and dimer bands

With GST-SVV (from UniProt O15392 1-142) as the substance, how does the stoichiometry N read?
The stoichiometry N was 2.
